Experimental data from article PMC4190070 (Nature structural & molecular biology, 2014).

Target: T1, SA2–Scc1 cohesin subcomplex (SA2 80–1060, Scc1 281–420), purified recombinant (human, UniProt Q8N3U4;O60216)
T1 sequence 1: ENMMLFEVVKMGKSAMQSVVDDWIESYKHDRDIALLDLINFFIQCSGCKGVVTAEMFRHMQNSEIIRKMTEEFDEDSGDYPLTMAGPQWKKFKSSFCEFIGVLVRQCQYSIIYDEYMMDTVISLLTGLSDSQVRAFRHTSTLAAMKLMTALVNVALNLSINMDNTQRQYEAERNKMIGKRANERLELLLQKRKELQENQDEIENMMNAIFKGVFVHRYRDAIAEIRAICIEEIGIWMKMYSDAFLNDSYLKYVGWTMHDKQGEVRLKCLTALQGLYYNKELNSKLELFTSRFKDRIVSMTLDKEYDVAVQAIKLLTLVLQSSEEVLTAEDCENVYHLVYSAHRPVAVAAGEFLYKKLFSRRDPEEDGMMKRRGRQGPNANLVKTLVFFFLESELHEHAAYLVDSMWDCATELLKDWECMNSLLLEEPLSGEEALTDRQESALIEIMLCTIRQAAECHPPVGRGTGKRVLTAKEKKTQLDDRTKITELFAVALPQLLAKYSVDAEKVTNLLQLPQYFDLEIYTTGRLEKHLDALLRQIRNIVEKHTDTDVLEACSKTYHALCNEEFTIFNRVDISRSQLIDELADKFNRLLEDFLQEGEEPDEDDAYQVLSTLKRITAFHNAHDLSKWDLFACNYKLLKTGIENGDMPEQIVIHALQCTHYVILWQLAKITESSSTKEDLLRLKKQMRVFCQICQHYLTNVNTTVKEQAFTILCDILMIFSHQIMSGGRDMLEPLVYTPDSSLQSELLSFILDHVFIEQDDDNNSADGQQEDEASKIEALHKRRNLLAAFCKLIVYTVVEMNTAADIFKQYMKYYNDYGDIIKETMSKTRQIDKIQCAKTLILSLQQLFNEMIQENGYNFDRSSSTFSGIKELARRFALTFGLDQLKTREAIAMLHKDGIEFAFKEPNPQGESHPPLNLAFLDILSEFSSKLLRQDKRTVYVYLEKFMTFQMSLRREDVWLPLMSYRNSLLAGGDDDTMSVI
T1 sequence 2: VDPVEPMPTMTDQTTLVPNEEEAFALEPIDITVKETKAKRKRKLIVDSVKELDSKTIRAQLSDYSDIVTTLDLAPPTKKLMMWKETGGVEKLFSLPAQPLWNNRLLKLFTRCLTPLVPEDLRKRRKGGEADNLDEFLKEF
Test: ITC

- Kd: 618 nM
- stoichiometry N: 1
Binder: KSENKKTVPQKKMHKSVSSNDAYNFNLEEGVHLTPFRQKVSC [unphosphorylated Sgo1 peptide (residues 313–353)]
